Test results published in the DeepSol protein solubility set.

Experiment: soluble on expression in E. coli; label from the status in PepcDB or PDB records

Soluble on expression in E. coli, soluble:
MSLKNILIIGANGFTGRRILNDLSVNPIYHVTGCSLRDDICPGKDYRFVRTDIRDENEVRKLFKECRPDIVINTSALSVPDYCETHHAEAEATNVTAVETIAHVCEQYGSRFIHLSTDFVFDGKSTRLYKEEDEAIPVNYYGVTKLKAEKIIASICSNYAIVRVVVVYGKALPGQHGNILQLVANRLRNGETIRVVSDQWRTPTFVGDISVGVEKLMFHTANGIYHICGSECLTIAEIAYRVADFLKLDRSLIEPVTTEEMKEVTPRPRFSGLSIEKAKAEIGYTPRTLEEGMEASEGHHHHHH, MSGEGDTTLKAICYKPGSLQLLDQRKLPLETIYLEIRDASDGWSAIQEMVVRGAPAIAIAAALSLAVEVFNFHGFDGSASDAVAFLENKLDYLVSSRPTAVNLADAALKLKHVIAKALATATEAKSIFKAYIEASEDMLEDDVVSNKAIGNFGLSLLRQQAKNPDKLSVLTHCNTGSLATAGYGTALGVIRALHTQGILERAYCTETRPFNQGSRLTAFELVHEKIPATLIADSAAAALMKDGRVDGVIVGADRVASNGDTANKIGTYSLALCAKHHGIPFYVAAPLTSVDLSLSSGKEIVIEERSPKELMHTHGGLGERIAAPGISVWNPAFDMTPAELIAGIITEKGVITKNGNDTFDISSFAKKITGNSSR, MNAAEVIVYEHVNFGGKSFDATSDQPGAGDNLNDKISSIKVKSGTWRFYEYINYGGRYWDLGPGEYSSVESAGIPDNSISSFRQI, MAHHHHHHMNQDLDKELREALQQDKYDLQLFLRFLKSYVVSGSQPEKQLLLGILLQALPRFHTSDFSACISLISSHVQDASYIEKDIILIYDLENYLSSGNFPQFWQVWRESEGTLPARPSFEPNMRAAILTVIGCTLGHIQTKDLSVYLGLKSGEKLEEVLREAARIAGDAVQLVGADEQAVVFQKSVFNAPESDSNQELKRFSDTVTIVSL, MCMGIFKRVSNMVKAKVNNTLDEMENPIELLDQKIRDMEESLNKAKISSAQILGNAHEIEKKLQKARLESEDYDSKVKLAVKNGNDDLAKRALERKLDADKRESLQKSYEDASQKSKVIKDKLRTLEEEIEKTRAYRDEAAARFNNAEATKKVNEVLSNVDTGSNSINLDDIERKIERKEAMAEGLGDLRNEDSLEKEFEKLNETNLDDELAKYKNNIKLEHHHHHH, MAPSSLSQSFDHAAQTPEIFEKVPSRTVGRKATITKEELFQAALNLIGPEKSISSLSLREVAREAGIAPNSFYRHFRDIDELAIDLINRAGLVLRHIIRESRLQASKQNSIIRSSVEVFIQQLDADEGNLSLLLREAYTGSKSYKEAVERQLNFFQQELQEDLIRLERLNHSRLSHPDLVARAITQLVFTMGAKVLDLPINQRTAVAEQTMIMIRMILEGARHLDESKIR, GMSVVDPSLIERIIRDDVRAMGAYHVPDSHGLVKLDAMENPYRLPPALRSELAARLGEVALNRYPVPSSEALRAKLKEVMQVPAGMEVLLGNGSDEIISMLALAAARPGAKVMAPVPGFVMYAMSAQFAGLEFVGVPLRADFTLDRGAMLAAMAEHQPAIVYLAYPNNPTGNLFDAADMEAIVRAAQGSVCRSLVVVDEAYQPFAQESWMSRLTDFGNLLVMRTVSKLGLAGIRLGYVAGDPQWLEQLDKVRPPYNVNVLTEATALFALEHVAVLDEQAAQLRAERSRVAEGMAAHGGVTVFPSAANFLLARVPDAAQTFDRLLARKVLIKNVSKMHPLLANCLRVTVSTPEENAQFLEAFAASLQD, MSLIKGKELLGRPVVAVSNGAQVDNVHDVVFDHQGNRVLALLVEEGGWLRAAKAVPFGRVQSIGEKAVMIATPEDVVNTGRDPVLKEALAGKTNLIGMTLLTTDGQTLGKITDVYFDERSGQVEGYEASGGLFADMTNGRTFIPAPQSIQIGKDSAIVPAGVAAAMREQAPGGIRGAFHTAGKSLGGAVQGAADSVRGAYEDTSRSVRENYEQVSANVAEAAREGQQQARAAASDLRSRVQGGAEDLREASAERQKDFVVGKVAGQDVRTDNGVLIVAKGTTIDEGQARFAEQNGALPALLAAAAGGSVREGVRDLLADPSSDAGDVVGRRVQEDVRSSVGSLIAVQGQIVTPEVAERARELGLEERLVAATQAPGLQTPPVPDRAELREQASDLRDNLADGLSNVSQNVSQGANELLGRAKSWLGERREDLEDSLDRQEQEAYQARIRDALGRPVTRAVLTRTDRVILQPGELVTHAALDEARAAGVLGLLLDSVDGGEGHHHHHH, MSKQQPTQFINPETPGYVGFANLPNQVHRKSVKKGFEFTLMVVGESGLGKSTLINSLFLTDLYPERVIPGAAEKIERTVQIEASTVEIEERGVKLRLTVVDTPGYGDAINCRDCFKTIISYIDEQFERYLHDESGLNRRHIIDNRVHCCFYFISPFGHGLKPLDVAFMKAIHNKVNIVPVIAKADTLTLKERERLKKRILDEIEEHNIKIYHLPDAESDEDEDFKEQTRLLKASIPFSVVGSNQLIEAKGKKVRGRLYPWGVVEVENPEHNDFLKLRTMLITHMQDLQEVTQDLHYENFRSERLKRGGRKVENEDMNKDQILLEKEAELRRMQEMIARMQAQMQMQMQGGDGDGGALGHHV, MAHHHHHHMPIPSPPPPMRFVPNGVGGGGARDLTAVKEPNFEVLETSSPVPARVIHNAPASAVPSGTQRPVEAPPSTHATGAQHHPKAVHSPPLACPALAMTSTPASSSSSSSSQQVAQLWQLVQDLTAENAVLQQRVRVLMEGETHDAILPGMLTAPSSPEETEALLLRVRRLEAALKVEAMEREALEVRLQAQEQVLTRLLRR, MAHHHHHHMPPFFEARAEKLMLAAQEECRLLAAQLEKSRAARAASTCGPQGKIRAAPATAPVAATSPPSPRRTYSAATATVAVKGLSIGSSTSTSPDRAGSPSAAPPSASPARVVIPTAATHKEGTLLHLVRGSGLFGSGSRSFVPHYIAVSGSAGISWYASEAEYRQNPSRPLGHADFWIETFNSRGSRFKKAAVCWPLILPDDCPEAKDANKTYFAVDYYTPDEAREQVVLAASSPAERDEWVQLLTKYIDLYLAPRAESEELQHIPRGAEVPLHRSGVIEGEAPGGNIL, MLVQGAGGNTSIKQAGVLWIKASGTWLKNARDDEIMVPVALAPLLDAVSHRSPAAEAAGQFTLADLNPRQLRPSIETTVHALLPQKIVVHVHCVETISIAVQANAEALLEGRLRGLDWAFVPYRRPGLPLAQAIAERLKPATNVLVLGNHGLVVAADTVAEAALLLQRVTGLLARQPRPAPPPDLDALLRLAAGSDYRLPALEHHHHHH

Soluble on expression in E. coli, not soluble:
MKNIKMPVLVLAAEKDHITPPESVTAFFEKIPSKDKKLLLSDKGHIGLTVSGSSHRKIWPEAIKWVVERSK, MTSPSSDEDIIDIRVIKEEPESEPDSEAEPATTTNSTDSEDSVEQENKKLLETEKNRKREQKHKMLPNGTTSGTSDTGNQVPATSSAASSVDYTAMNAQDYLPTYSNTTLNYQPYQYQTAANGLLNYNNYSQYATANQLGSNYISPANFMQGGGISPLGFTTGTTGATTAAASVATSSASAVIGRSNGRSSSTVAASPADRSYSGVSGGQGQELTIQEFETVTEKIRRHGTYGQSKPPYSYISLITMAIQKSNSRQLTLSEIYNWIMDLFPYYQNNQQRWQNSIRHSLSFNDCFVKVARSPDKPGKGSFWTLHEHCGNMFENGCYLRRQKRFKVKEREPSRKKRNANSQQLHQQQHIPKMEIKEEDPTSITTTSSLGAYSLIPQISTKKEIKEELKAVQDATAAAANLGLIDPSGTPSAVNHSQPTSVISSVGTLGTTQAQMTLNGQYASPYLYSSDFATILPQSQNFLNNTLYNTTSSYPGIDYTNGVYQNTLYSSTNPNSAANL, SLKSFPHGEKAPFPLTLIHINDLHARFDETNQKSSTCTNSKECIAGIARVYHTIKQLKSEYKTKNPLYLNAGDNFQGTLWYNLLRWNVTAYFIKELPPDAMTLGNHEFDHSPKGLAPYLAELEKMKIPTVVANLEKNGEPALKDSKIAPQIVLKVGNRKVGVIGALYDKTHLVAQTGMVTLTNSIEAVRKEAQELKKKNVNIIVVLSHCGLDGDKQLAEEAGDLIDVIVGAHSHSLLLNKDAKVPYDTKYDTIEGDYPLVVKKSNNHTVLITQARSFGKYVGRLTVNFDCEGEVQSWEGYPIYMNNSVKQDEEVLRELEPWRAEVKRLGTQVIGTTEVFLDRESCRWCECTLGDLIADAYADQYTNSTVQPVAFVQAGNFRNPIEKGDITNGLAIEAAPYGSSVDMIKLSGADLWSAIDHSFTLDDEFRYNTAQVSGMTVVADLSKKPYERVQSIDIVGANGAKTALKKDQIYYVAVPSYLADGKDGFAMLKKGTNRVTGPLDSDVLIEYVRKRQTIAKTMFQEKRVVIENHTNGTCSWDLDSQRYKPK, MGSDKIHHHHHHMLKRLLDYNEGEEFDLVLMVKNSELRQDKRGKHYLLMQLADSSGSIRANYWQAKAEDASRFNAGTVVEASGMIEDYHNHDQIKLFSIHPVSPDDQADLSQLVATAPEKPAEMEKEIKDFVAQIDNKNWHDLVDFLLKKWSSRFFAYPAGKSNHHAYKGGLAFHTLTMLKDARGLADNYPAVNRSLLYAGCILHDMGKVLELSGPVATQYTAEGNLVGHLVLIDEQLMLAAQELKIDLASEDLLLLRHMVLSHHGRYEYGSPKLPALLEAELLHRIDDLDAAVNAITTVNCPRPSRGNSPRR, MGSDKIHHHHHHMSDIHKKIKKKQFAPLYLLYGTEAFFINETIKLITTEALEEEDREFNVVTYDLEEAYLEDVVEDARTLPFFGERKVLLIKSPLFLTSQKEKLEQNIKILEEYIGEPSPFSILVFVAPYEKLDERKKITKLLKKTADVVEANAMQVQDVQKWIVARADEVHVHIDHAAVSLLLELVGSNVTMLAKEMDKLTLYVGMGGDITPKLVAELVPKSVEQNVFALTEKVVKKDIAGAMQILDGLFTQQEEPIKLLALLVSQFRLLHQVKELQQRGYGQNQIASHIGVHPYRVKLAMNQTKFFSFEELKKVIMELAEADYSMKTGKMDKKLVLEFFLMRLNHM, MGSDKIHHHHHHMFPFERQNKIIHLLDQNSKITVPELSRILDVSISTIRNDLSSLEESGMIKKVHGGAVLLKSEEKFTNFNDRIIRNIEEKEAIAKEAATLVKNNQTIILDASSTALALAKELHGFSRLTVITSGLYTAIELKDNPNISVILTGGIVTTNSFTLEGILGANLIENIHADLCFMSAKGFTMEEGLTDFNIYETELKRLLAKRTNKLIALLDHTKMGVISTASITAAENIDLLITDNKINKALYKKFQDAGLPVKIAE, MGSDKIHHHHHHMRISLGPLVYCWQKQQVMAFYQQVAASQIPLVYLGEAVCSRRRELKWGDYFELARMLKQAGKEVVISTLALIEASSEYTELKRQVDNGEFMIEANDMAAVYLAKEHKLPFVCGASINNYNRASLDILHGFGMQRFVMPVELSKAWLQHVIQNKPAFEVEVFGHGYLPLAHSARCFTARHKQLTKDSCETICRQYSKGLLAQTQEMQPLLRLNGIQTQSAACLDLSSEIAAMNTMGVDVFRVSPSGTESIVRAESLIEALNMPEMALNAPIKGEQCDGYWFGEAGLTIHHAT, MGSDKIHHHHHHMKAVILAAGRGSRLQALTDERPKALVPFNGVPLLQRAIETLRRCDVSEVGIVAGYRSEMLAPFADTLFYNHRWHSSGIFSSLNCASDWLSAEPCLVSYGDIFYDSTLVSELINHPADIVLGYDPAAVRLWQQRFNDPLPDLENFRLVDGWVSAIGQTATSLEVIQGQYMGLFKVTPAGWQALKKQLQGLTPQARDQTDMTSLLGTLVSEGFPVAGVATHAPWGEIDCPSDVALYERIYPDR
